Source: US20250340649A1 (RUTGERS THE STATE UNIVERSITY OF NEW JERSEY, published 2025)

Key:
[1] = molecular target: T1, Biotinylated Human Fc gamma RIIIA/CD16a (F176) Protein, Avitag, His Tag (Acrobiosystems CDA-H82E8) (human, UniProt P08637 17-208, biotinylated (Avitag)); test: BLI (Octet), biotinylated CD16a on streptavidin sensor, VHH 1.875-60 nM
T1 construct: also called biotinylated CD16a; CD16a antigen

[2] = molecular target: T2, CD16a on NK92 (CD16+) cells (human, UniProt P08637 17-254); test: flow cytometry, fixed haNK92 (CD16+) cells, tenfold dilutions, anti-histag-FITC
T2 construct: whole, on cells; also called NK92 cells (CD16a+); haNK92 cells (CD16a+)
T2 sequence (P08637 17-254 F176V): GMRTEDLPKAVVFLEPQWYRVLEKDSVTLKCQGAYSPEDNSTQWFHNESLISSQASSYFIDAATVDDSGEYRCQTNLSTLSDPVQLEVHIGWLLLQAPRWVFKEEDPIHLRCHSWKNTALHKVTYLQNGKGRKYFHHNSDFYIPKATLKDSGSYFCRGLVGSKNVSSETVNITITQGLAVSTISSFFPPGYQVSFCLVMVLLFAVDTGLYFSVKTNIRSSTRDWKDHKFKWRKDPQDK
Procedure: First, CD16a+NK92 was harvested and washed once using Dulbecco's phosphate-buffered saline (DPBS) supplemented with 2% FBS (2% DPBS-FBS). Next, all the cells were fixed using 3.7% paraformaldehyde for 20 min at RT, followed by washing twice. […] Following washing three times, the secondary antibody, anti-Histag antibody FITC labeled, was added. After washing, the samples were run on Cytoflex using FL1 channel.

[3] = molecular target: T3, Biotinylated Human Fc gamma RIIIB/CD16b (NA1) Protein, His, Avitag (Acrobiosystems CDB-H82E4) (human, UniProt O75015 17-200, biotinylated (Avitag)); test: BLI (Octet), biotinylated CD16b-NA1 on streptavidin sensor, VHH 1.875-60 nM
T3 construct: NA1 allele; also called CD16b-NAI
T3 sequence (O75015 other isoform, or with tags, fused parts or gaps limits assumed): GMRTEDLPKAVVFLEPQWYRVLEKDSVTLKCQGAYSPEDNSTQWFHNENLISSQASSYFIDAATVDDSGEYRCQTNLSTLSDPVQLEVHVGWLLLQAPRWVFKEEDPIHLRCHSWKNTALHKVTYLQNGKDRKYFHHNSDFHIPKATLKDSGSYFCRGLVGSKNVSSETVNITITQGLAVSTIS
Procedure: An Octet® Streptavidin (SA) Biosensor was soaked for at least 10 min in DPBS supplemented with 0.1% Casein, biotinylated CD16a, CD16b-NA1, CD16b-NA2, and HER2 antigens were loaded onto the streptavidin (SA) biosensor until 1 nm shift was reached. Next, the sensor was dipped into the washing buffer (DPBS+0.05% Tween 20+0.1% Casein) for 2 min to reach the baseline. […] Then, in the dissociation step, sensors were dipped into the washing buffer for 5 min to acquire data (Table 5). The data were then analyzed using Octet Data Analysis HT 11.1 software. The sensorgrams were subtracted from the reference and fitted into 1:1 binding model for data analysis. Finally, the affinity and kinetics were analyzed using “Association and Dissociation”.

[4] = molecular target: T4, CD32b on B cells (UniProt P31994 43-310); test: flow cytometry on B cells (CD32b+)
T4 construct: whole, on cells; also called B cells (CD32b+)
T4 sequence (looked up): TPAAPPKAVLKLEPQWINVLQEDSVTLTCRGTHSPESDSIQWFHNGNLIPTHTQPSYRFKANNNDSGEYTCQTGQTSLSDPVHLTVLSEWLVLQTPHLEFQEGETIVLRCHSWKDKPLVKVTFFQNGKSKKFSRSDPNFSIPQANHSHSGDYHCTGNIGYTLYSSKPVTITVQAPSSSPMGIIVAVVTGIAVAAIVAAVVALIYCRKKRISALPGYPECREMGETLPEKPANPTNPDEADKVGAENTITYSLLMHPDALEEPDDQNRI

[5] = molecular target: T5, biotinylated CD32b (UniProt P31994 46-217, biotinylated); test: ELISA, biotinylated antigen on streptavidin plate
T5 construct: also called CD32b antigen
T5 sequence (looked up): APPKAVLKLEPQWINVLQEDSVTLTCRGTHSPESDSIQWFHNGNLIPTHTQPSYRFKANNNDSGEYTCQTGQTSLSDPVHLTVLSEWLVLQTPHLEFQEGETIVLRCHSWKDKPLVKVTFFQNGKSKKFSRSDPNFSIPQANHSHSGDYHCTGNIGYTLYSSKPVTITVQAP
Procedure: The purified VHHs were subjected to functional analysis using ELISA and flow cytometry. For ELISA, 50 μL of biotinylated CD16a, CD16b-NA1, CD16b-NA2, and CD32b were added to the streptavidin-coated plate and incubated for 45 min at RT. Following washing, the 100 μL of 100 nM purified VHHs were added and incubated at RT for 1 h. Next, 100 μL anti-HA tag HRP conjugated secondary antibody was added. Finally, the substrate was added for color development, and the plate was read using OD of 450 nm.
CD32b and skim milk were also used as antigen controls. 3G8 and eBioCB16, which are anti-CD16a/b mAbs were used as antibody controls. […] CD32b is a receptor that is expressed on B cells and responsible for inhibiting B cell activation. One of the disadvantages of mAb-based therapies is the binding of their Fc region to CD32b leading to the diminished activity of humoral immunity.

[6] = molecular target: T1, Biotinylated Human Fc gamma RIIIA/CD16a …; test: ELISA, biotinylated CD16a on streptavidin plate, tenfold dilutions 0-1000 nM, anti-cMyc-HRP
Procedure: For ELISA, 50 μL of biotinylated CD16a was added to the streptavidin-coated plate and incubated for 45 min at RT. […] Next, 100 μl anti-cMyc tag HRP conjugated secondary antibody (1:10,000 dilutions) was added. Finally, after washing, the substrate was added for color development, and the plate was read using OD of 450 nm.

[7] = molecular target: T6, CD16b on neutrophils (human, UniProt O75015 17-200); test: flow cytometry on neutrophils (CD16b+)
T6 construct: whole, on cells; also called neutrophils (CD16b+)
T6 sequence (O75015 17-200): as the sequence (O75015 other isoform, or with tags, fused parts or gaps limits assumed) above, with R20S, D66N, V90I counted along it
Procedure: For flow cytometry, haNK92 cells (CD16a+) and Neutrophils (CD16b⁺) were used. […] The human Neutrophil cells were purchased from HemaCare and cultured according to the manufacturer's protocol. First, both cell lines were harvested and washed once using DPBS supplemented with 2% FBS (2% DPBS-FBS). For each sample, 0.5×10⁶ cells were stained with antibody on ice for 60 min. In this experiment, 3G8 monoclonal antibody was used as a positive control. This antibody binds to both CD16a and CD16b. Following washing three times, the secondary antibody, anti-Histag antibody FITC labeled, was added. After washing, the samples were run on Cytoflex using FL2 channel.
In this experiment, NK92 cells (CD16a⁺), neutrophils (CD16b⁺), and B cells (CD32b⁺) were used as cell controls. 3G8 (anti-CD16a/b) and AT10 (anti-CD32a/b) mAbs were used as antibody controls.

T1 sequence (P08637 17-208 limits assumed): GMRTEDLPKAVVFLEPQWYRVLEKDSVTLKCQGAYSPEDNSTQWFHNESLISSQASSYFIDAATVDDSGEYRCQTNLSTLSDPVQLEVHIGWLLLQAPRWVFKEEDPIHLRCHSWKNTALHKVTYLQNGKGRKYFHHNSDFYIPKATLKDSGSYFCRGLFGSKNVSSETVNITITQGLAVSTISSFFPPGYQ

Kd [1]: 1.73 nM
koff [1]: 0.000479 s⁻¹
kon [1]: 277000 M⁻¹ s⁻¹
EC50 (read off the curve) [2]: ~1 nM
Kd [3]: 119 nM
koff [3]: 0.0255 s⁻¹
kon [3]: 213000 M⁻¹ s⁻¹
binding result [4]: no binding
binding result [5]: no binding (tested: 100 nM)
EC50 (read off the curve) [6]: ~0.3 nM
binding result [7]: no binding
B1: C1 anti-CD16a VHH (VHH)
VHH: QVQLQESGGGLVQAGGSLRLSCAASGRTFRLYRMGWFRQAPGKEREFVGSIKMIDGSTLYGDPVKGRFTISRDNTKFMAYLQMNSLKPEDTAVYYCASVSRVTGSYDSWGQGTQVTVSSYPYDVPDYAHHHHHHHH
notes: also called C1 clone; C1 VHH
